Experimental findings from paper PMC8612989 (Environmental microbiology reports, 2021) are described below.

The target of series [1] is Ayg1p chain-shortening enzyme (Aspergillus fumigatus, UniProt Q9UVV1). As to the kind of experiment: T4HN production detected in yeast co-expressing alb1 and ayg1. To be noted: S. cerevisiae INVSc1-npgA, YWA1 formed in the cell by Alb1p; 30 °C. The series is classed as cell-based.
Series [2] has as its system O=C1C[C@H](O)Cc2cc(O)cc(O)c21. In words: purified protein. To be noted: conditions not separately told (YWA1 assay: pH 6.0, 30 °C).
In series [3] the target is T1, Arp1p with His-tag (Arp1p-HT), Arp1p dehydratase of Aspergillus fumigatus (Aspergillus fumigatus (strain B-5233)), O14434.
T1 chain: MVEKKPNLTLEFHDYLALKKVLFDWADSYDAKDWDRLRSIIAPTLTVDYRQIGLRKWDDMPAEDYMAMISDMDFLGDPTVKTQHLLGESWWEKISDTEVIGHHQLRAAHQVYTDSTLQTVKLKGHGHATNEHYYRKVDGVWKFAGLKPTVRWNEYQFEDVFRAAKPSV
In words: SEC. To be noted: remark: other sources report otherwise.

For `CC1(O)CC(=O)c2c(cc3cc(O)cc(O)c3c2O)O1` (stereo not shown) [YWA1], the “T4HN production detected in yeast co-expressing alb1 and ayg1” value in series [1] was “co-transformed into yeast (S. cerevisiae INVSc1-npgA/pYES-alb1+p425-ayg1) and T4HN production was detected”. With “Arp1p (Arp1p-HT) dehydratase (Aspergillus fumigatus Af293)”, in series [2], the Michaelis-Menten constant (Km) (usually the concentration of substrate that gives half-maximal velocity) came out at 15.7 µM and the kcat (in general, the maximal rate divided by the concentration of active sites) stood at 2.7 s⁻¹.

B1: Arp1p with His-tag (Arp1p-HT), Arp1p dehydratase of Aspergillus fumigatus, O14434 1-168 (enzyme)
chain: MVEKKPNLTLEFHDYLALKKVLFDWADSYDAKDWDRLRSIIAPTLTVDYRQIGLRKWDDMPAEDYMAMISDMDFLGDPTVKTQHLLGESWWEKISDTEVIGHHQLRAAHQVYTDSTLQTVKLKGHGHATNEHYYRKVDGVWKFAGLKPTVRWNEYQFEDVFRAAKPSV
Regarding B1, the stoichiometry N (commonly a count of units in the complex or per binding partner) in series [3] worked out at 3.
